In paper doi:10.1101/2025.05.18.654456:

Molecular target: F-actin (actin purified from rabbit white skeletal muscle, polymerised) (rabbit), P68135
Assay: co-sedimentation; various concentrations of His-α-actinin in A50 buffer (50 mM HEPES-KOH pH 7.6, 50 mM KCl, 5 mM MgCl2, 1 mM EGTA) mixed with 10 μM G-actin on ice, 25°C for 60 min to polymerise actin, centrifuged at 100,000 ×g for 10 min at 25°C; supernatant and pellet on SDS-PAGE, Coomassie; model fitting; apparent dissociation constant
Settings: remark: other sources report otherwise

Kd: 1400 nM
B1: Recombinant human α-actinin I (6×His-tagged), P12814 1-892 (natural protein)
chain: MDHYDSQQTNDYMQPEEDWDRDLLLDPAWEKQQRKTFTAWCNSHLRKAGTQIENIEEDFRDGLKLMLLLEVISGERLAKPERGKMRVHKISNVNKALDFIASKGVKLVSIGAEEIVDGNVKMTLGMIWTIILRFAIQDISVEETSAKEGLLLWCQRKTAPYKNVNIQNFHISWKDGLGFCALIHRHRPELIDYGKLRKDDPLTNLNTAFDVAEKYLDIPKMLDAEDIVGTARPDEKAIMTYVSSFYHAFSGAQKAETAANRICKVLAVNQENEQLMEDYEKLASDLLEWIRRTIPWLENRVPENTMHAMQQKLEDFRDYRRLHKPPKVQEKCQLEINFNTLQTKLRLSNRPAFMPSEGRMVSDINNAWGCLEQVEKGYEEWLLNEIRRLERLDHLAEKFRQKASIHEAWTDGKEAMLRQKDYETATLSEIKALLKKHEAFESDLAAHQDRVEQIAAIAQELNELDYYDSPSVNARCQKICDQWDNLGALTQKRREALERTEKLLETIDQLYLEYAKRAAPFNNWMEGAMEDLQDTFIVHTIEEIQGLTTAHEQFKATLPDADKERLAILGIHNEVSKIVQTYHVNMAGTNPYTTITPQEINGKWDHVRQLVPRRDQALTEEHARQQHNERLRKQFGAQANVIGPWIQTKMEEIGRISIEMHGTLEDQLSHLRQYEKSIVNYKPKIDQLEGDHQLIQEALIFDNKHTNYTMEHIRVGWEQLLTTIARTINEVENQILTRDAKGISQEQMNEFRASFNHFDRDHSGTLGPEEFKACLISLGYDIGNDPQGEAEFARIMSIVDPNRLGVVTFQAFIDFMSRETADTDTADQVMASFKILAGDKNYITMDELRRELPPDQAEYCIARMAPYTGPDSVPGALDYMSFSTALYGESDL
